1 substance from patent US20020068361A1, “METHODS OF EVALUATING SPECIFIC CELLULAR FUNCTIONS OF RECEPTOR PROTEIN TYROSINE KINASES IN A LIGAND INDEPENDENT MANNER” (priority 1997, published 2002) can be followed below.

One experiment deals with T1, chick TRKA receptor (Gallus gallus, UniProt Q91009).
T1 construct: expressed in transfected cells
The experiment is described as follows: Antibody/ligand recognition of chick TRKA receptor. The class given is binding, chicken. The conditions noted are these: immunoblot or immunoprecipitation; receptor activation. The source says: (§1) The antibody preparation used in the experiments, called CTA, was a rabbit antibody raised against the entire extracellular domain of chicken TRKA expressed in COS cells. […] A useful control for these experiments was to activate the endogenous rat TRKA receptor without influencing the introduced chimeric receptor.
(§2) While the chick receptor became phosphorylated by both treatments, activation of the rat receptor was detected only after NGF addition. […] The effects of the CTA antibody preparation were therefore not attributable to activation of endogenous TRKA receptors.

Another experiment addresses T2, rat TRKA receptor (Rattus norvegicus, UniProt P35739).
T2 construct: endogenous in cells
Put plainly: Antibody/ligand recognition of rat TRKA receptor. The class given is binding.
Description: as §1, §2

T1 sequence (Q91009 15-778): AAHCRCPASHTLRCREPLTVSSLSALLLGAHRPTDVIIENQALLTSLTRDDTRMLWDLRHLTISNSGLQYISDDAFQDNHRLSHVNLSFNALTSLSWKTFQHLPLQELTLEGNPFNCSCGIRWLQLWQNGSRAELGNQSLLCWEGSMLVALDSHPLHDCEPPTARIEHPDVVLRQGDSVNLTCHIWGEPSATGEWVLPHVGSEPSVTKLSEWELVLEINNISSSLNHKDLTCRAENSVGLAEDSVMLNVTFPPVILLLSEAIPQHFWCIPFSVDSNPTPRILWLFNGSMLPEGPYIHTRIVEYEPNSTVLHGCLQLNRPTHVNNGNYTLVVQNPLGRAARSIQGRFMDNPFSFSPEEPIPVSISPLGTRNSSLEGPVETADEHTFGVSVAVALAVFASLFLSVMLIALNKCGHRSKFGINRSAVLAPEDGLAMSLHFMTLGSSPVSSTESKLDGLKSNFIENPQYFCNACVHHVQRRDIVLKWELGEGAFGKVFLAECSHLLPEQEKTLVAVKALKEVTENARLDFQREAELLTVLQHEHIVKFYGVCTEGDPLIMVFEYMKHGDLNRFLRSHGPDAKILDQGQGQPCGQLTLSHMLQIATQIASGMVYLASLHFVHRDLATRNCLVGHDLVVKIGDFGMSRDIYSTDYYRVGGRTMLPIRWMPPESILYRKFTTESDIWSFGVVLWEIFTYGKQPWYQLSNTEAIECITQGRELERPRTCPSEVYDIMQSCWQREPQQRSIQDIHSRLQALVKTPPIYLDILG
T2 sequence (P35739 33-799): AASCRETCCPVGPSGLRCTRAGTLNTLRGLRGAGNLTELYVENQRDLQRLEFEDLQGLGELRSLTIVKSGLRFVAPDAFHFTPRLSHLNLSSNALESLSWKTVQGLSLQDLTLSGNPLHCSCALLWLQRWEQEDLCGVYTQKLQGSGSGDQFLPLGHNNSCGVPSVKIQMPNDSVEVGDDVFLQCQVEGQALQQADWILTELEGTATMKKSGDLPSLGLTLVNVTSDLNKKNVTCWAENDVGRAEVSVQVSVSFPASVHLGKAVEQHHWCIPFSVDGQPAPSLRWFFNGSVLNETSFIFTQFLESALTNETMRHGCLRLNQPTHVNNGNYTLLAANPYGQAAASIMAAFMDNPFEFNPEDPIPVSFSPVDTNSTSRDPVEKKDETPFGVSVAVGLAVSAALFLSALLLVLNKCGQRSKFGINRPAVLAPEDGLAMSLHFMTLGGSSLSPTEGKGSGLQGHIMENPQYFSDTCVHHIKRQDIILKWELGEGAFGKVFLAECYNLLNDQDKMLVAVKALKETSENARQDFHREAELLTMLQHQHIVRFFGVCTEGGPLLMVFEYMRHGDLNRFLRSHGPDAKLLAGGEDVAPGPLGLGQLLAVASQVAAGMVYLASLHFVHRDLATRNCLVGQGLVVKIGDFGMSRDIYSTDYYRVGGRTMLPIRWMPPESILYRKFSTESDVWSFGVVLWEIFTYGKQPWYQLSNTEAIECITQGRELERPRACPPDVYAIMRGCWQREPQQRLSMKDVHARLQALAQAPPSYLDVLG

With “NGF: nerve growth factor, ligand which binds to the extracellular region of the TRK receptor”, the “recognition of chick TRKA receptor” value with chick TRKA receptor is “binds both receptors”. The “recognition of rat TRKA receptor” value with rat TRKA receptor is on record as “binds both receptors”.
